Source: patent publication US20210188971A1 (QUIDEL, published 2021)

Biological target: T1, L1-10 fusion protein (human)
T1 construct: also called L1-10, unlabeled; L1-10 antigen
Assay: indirect sandwich luminescence ELISA, L1-10 held by anti-MBP or StrepMAb on RAM
Method: Appropriate diluted standards were prepared along with controls and samples in a Assay Diluent in a separate non-sticky plate. 50 μl or 100 μl of each antibody or antigen (at indicated concentrations) were pipetted to the plate wells. Plates were sealed and incubated for 60 minutes at RT (unless otherwise indicated). The plates were washed with PBST 4×. 50 μl/well of Furimazine substrate was pipetted and incubated for 3 minutes at RT.
The mouse monoclonal antibody served as the anchor for L1-10.

B1: M22_NLuc_HisTag antibody protein (antibody, human IgG1, lambda)
heavy: not shown
light: LTVLTQPPSVSGAPRQRVTISCSGNSSNIGNNAVNWYQQLPGKAPKLLIYYDDQLPSGVSDRFSGSRSGTSASLAIRGLQSEDEADYYCTSWDDSLDSQLFGGGTRLTVLGQPKAAPSVTLFPPSSEELQANKATLVCLISDFYPGAVTVAWKADSSPVKAGVETTTPSKQSNNKYAASSYLSLTPEQWKSHKSYSCQVTHEGSTVEKTVAPTECS
notes: also called M22_Luc; mAb Nluc-His
Does B1 bind?
Result: binds
